The results in this text go back to patent US20160304615A1 (Regeneron, published 2016).

Assay [1] deals with T1, EGFRvIII-mmh (human, UniProt P00533 298-647, limits assumed).
T1 construct: Soluble monomeric protein; also called hEGFRvIII-mmh; hEGFRvIII.mmh
The assay is described as follows: ELISA. From the text: (§1) To further characterize anti-hEGFRvIII mAbs, their binding specificity was examined by ELISA. […] Also, coated was an irrelevant peptide (control peptide) with or without biotin at its N-terminal. […] The plates were then washed and bound anti-EGFRvIII mAbs were detected with anti-human Fc antibodies conjugated with horse-radish peroxidase (HRP). […] Data analysis used a sigmoidal dose-response model within PRISM™ software.
On the technique in general: An ELISA detects its analyte on a solid surface through an enzyme-linked reagent.

Assay [2] has as its target T2, EGFR-mmh (human, UniProt P00533 25-647, limits assumed).
T2 construct: Soluble monomeric protein; also called hEGFR-mmh
The assay is described as follows: ELISA.
From the text: as §1

Assay [3] deals with T3, wild-type human EGFR on cells (human, UniProt P00533 25-1210).
T3 construct: Stands for transfected HEK293/hEGFRwt, endogenous EGFR of A431 and of parental HEK293 cells, and human EGFR of hEGFR mice; the cell line is named under assay; also called EGFRwt; hEGFRwt
The assay is described as follows: FACS, A431 cells, PE secondary antibody. How it is done: (§2) To determine the specificity of the anti-EGFRvIII mAbs, their binding to HEK293, HEK293 cells expressing EGFRvIII (HEK293/EGFRvIII) and A431 cells, was analyzed by fluorescence activated cell sorting (FACS). HEK293/EGFRvIII cells were prepared by transfecting HEK293 cells with neomycin resistant DNA vectors constitutively expressing full-length hEGFRvIII (SEQ ID NO:147) using LIPOFECTAMINE™ 2000 transfection reagent (INVITROGEN™). At two days post-transfection, cells were placed under G418 selection for approximately two weeks. Populations positively expressing EGFRvIII were isolated via fluorescence activated cell sorting (FACS). The HEK293 cells expressing ˜3×10⁶ copies of EGFRvIII per cell were used in the experiment. […] In another set of experiment, anti-EGFRvIII antibodies were directly conjugated via their lysine residues with the fluorescent dye, ALEXA FLUOR® 488 Dye (INVITROGEN™), thereby eliminating the step using the secondary antibody. […] Controls I, II, III, IV and V are described above. MFI: Mean Fluorescence Intensity.
For orientation: A flow cytometer gives signals particle by particle.

The target of assay [4] is T4, full-length hEGFRvIII on cells (human, UniProt P00533 298-1210).
T4 construct: Expressed from vectors in HEK293, U87, B16F10.9, U251 and MMT 060562 cells; also called HEK293/EGFRvIII; HEK293/hEGFRvIII
The experiment in a line: FACS, HEK293/EGFRvIII cells, PE secondary antibody. As to the method: as §2

The target of assay [5] is T5, EGFR-mFc (human).
T5 construct: Soluble dimeric protein
The experiment in a line: SPR 37C, receptor-capture. As to the method:
(§3) Measurements were conducted on a T100 BIACORE™ instrument. […] In the receptor-capture format, either EGFRvIII-mFc or EGFR-mFc, was captured on the BIACORE™ chip and the respective antibodies flowed over. Kinetic association (kₐ) and dissociation (kd) rate constants were determined by processing and fitting the data to a 1:1 binding model using Scrubber 2.0 curve fitting software. Binding dissociation equilibrium constants (KD) and dissociative half-lives (t_{1/2}) were calculated from the kinetic rate constants as: KD (M)=kd/kₐ; and t₁₁₂ (min)=ln2/(60*kd).

The target in assay [6] is T6, EGFRvIII-mFc (human).
T6 construct: Soluble dimeric protein
The assay is described as follows: SPR 37C, receptor-capture. As to the method: as §3

Assay [7] has as its target T1, EGFRvIII-mmh. The experiment in a line: SPR 37C, mAb-capture.
In assay [8] the target is T2, EGFR-mmh. The experiment in a line: SPR 37C, mAb-capture.
Assay [9] concerns the target T5, EGFR-mFc. The assay is described as follows: SPR 37C, mAb-capture.
The target of assay [10] is T6, EGFRvIII-mFc. The assay is described as follows: SPR 37C, mAb-capture.
The target in assay [11] is T7, C-terminal biotin-labeled EGFR311-326 peptide (human, biotin at the C-terminus).
T7 peptide: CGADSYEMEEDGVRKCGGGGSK
The assay is described as follows: BLI (Octet RED), biotinylated peptide on streptavidin tips. How it is done: After peptide capture, the coated tips were placed in 1 μM solutions of antibody and the binding responses were recorded (see FIG. 2). Controls I-III are the same as those described above.
(In general: BLI is a label-free optical method that tracks binding on a fibre tip over time.)

What is called EC50 is the concentration giving half of the maximal effect. Usually Kd stands for a measure of binding affinity in units of concentration. Low values mean higher affinity, high ones lower affinity. Broadly, the koff is the rate constant with which the complex falls apart. Lower therefore signals a long-lived complex. Usually kon stands for the rate constant with which the complex forms. A lower kon goes with slower complex formation.

B1: H1H2195P (antibody, human IgG1, V domains shown)
VH: QVQLVESGGGVVQPGRSRRLSCVGSGFIFSSYGMHWVRQAPGKGLEWVALIFYDGSNEYYVDSVKGRFTISRDNSKNTLYLQMNSLRAEDTAVYYCAREGYSQRYKYYFGMDVWGQGTTVTVSS
VL: DIQMTQSPSSVSASVGDRVTITCRASQGISSWLAWYQQQPGKAPKLLIYAASSLQSGVPSRFSGSGSGTDFTLTISSLQPEDFATYYCQQTNSFPLTFGGGTKVEIKR
notes: Human IgG1 Fc; also called H1H2195N
Turning to B1, the EC50 in assay [1] is 0.0049 nM; in assay [2], 0.0052 nM. Further, the “A431 MFI” value in assay [3] amounted to 2230 MFI. Besides, in assay [3], the “Fold Above Background” value worked out at 1.6 fold. Also, in assay [4], the “HEK293/EGFRvIII MFI” value stood at 13500 MFI. Further, the “Ratio (EGFRvIII MFI/parental MFI)” value in assay [4] was 11.5. Also, the equilibrium dissociation constant (Kd) in assay [5] was 0.231 nM; in assay [6] it was 0.106 nM; in assay [7], 10.7 nM; in assay [8], 9.2 nM; in assay [9] it was 2.05 nM; in assay [10], 1.1 nM. Moreover, the T½ stood at 3.7 h in assay [5]; 7.6 h in assay [6]; 0.283 h in assay [7]; 0.367 h in assay [8]; 1.02 h in assay [9]; 1.72 h in assay [10]. In addition, the koff is 5.2e-05 s⁻¹ in assay [5]; 2.53e-05 s⁻¹ in assay [6]; 0.000694 s⁻¹ in [7]; 0.000523 s⁻¹ in [8]; 0.000189 s⁻¹ in assay [9]; 0.000113 s⁻¹ in assay [10]. Moreover, the kon in assay [5] turned out to be 225000 M⁻¹ s⁻¹; in assay [6], 237000 M⁻¹ s⁻¹; in assay [7] it was 64800 M⁻¹ s⁻¹; in assay [8] it was 56600 M⁻¹ s⁻¹; in assay [9], 92000 M⁻¹ s⁻¹; in assay [10], 102000 M⁻¹ s⁻¹.

B2: H1H1863N2(Fuc-) (antibody, human IgG1, V domains shown)
VH: EVQLVESGGGLVQPGGSLRLSCAASGFPFSSYDMHWVRQATGKGLEWVSAIGTAGATYYPGSVKGRFTISRENAKNSLYLQMNSLRAGDTAVYYCARGDYVWGTYRPLFDYWGQGTLVTVSS
VL: DIQLTQSPSFLSASVGDRVTITCWASQGINNYLAWYQQKPGKAPKLLIYAASTLQTGVPSRFSGSGSGTEFTLTISSLQPEDFATYYCQQLNSYPLTFGGGTKVEIK
notes: Human IgG1; also called H1H1863N2 with reduced fucosylation; H1H1862N2 (Fuc-)
Consider B2, for which the binding result in assay [11] is given as “no binding (tested: 1 µM)”. For the same molecule, in [6], the T½ came to 0.9 h.
